# Publication PMC7859323
# Several values for one entry are separate records, joined by “and”; a condition that tells them apart may be missing. Identical values can stand only once.
# Target: Gla domainless factor VIIa (human) (UniProt P08709)
# Assay: titration of enzyme activity (rate of FX activation by des Gla-FVIIa)
# Sequence of UniProt P08709 (P08709 21-466, chain 1 of 2): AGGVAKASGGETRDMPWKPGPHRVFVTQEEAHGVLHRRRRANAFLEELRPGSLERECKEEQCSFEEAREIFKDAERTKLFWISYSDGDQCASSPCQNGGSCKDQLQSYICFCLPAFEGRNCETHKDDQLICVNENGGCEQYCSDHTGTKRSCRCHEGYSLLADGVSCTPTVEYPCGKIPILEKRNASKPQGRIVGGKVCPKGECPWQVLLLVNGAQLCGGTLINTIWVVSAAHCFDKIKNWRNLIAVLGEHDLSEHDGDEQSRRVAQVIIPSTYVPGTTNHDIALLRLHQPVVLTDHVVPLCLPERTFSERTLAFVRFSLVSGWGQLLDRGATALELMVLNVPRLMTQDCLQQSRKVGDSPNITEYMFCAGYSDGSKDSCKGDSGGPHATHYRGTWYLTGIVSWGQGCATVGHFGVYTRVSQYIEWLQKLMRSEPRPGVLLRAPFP
# Sequence of UniProt P08709 (P08709 213-466, chain 2 of 2): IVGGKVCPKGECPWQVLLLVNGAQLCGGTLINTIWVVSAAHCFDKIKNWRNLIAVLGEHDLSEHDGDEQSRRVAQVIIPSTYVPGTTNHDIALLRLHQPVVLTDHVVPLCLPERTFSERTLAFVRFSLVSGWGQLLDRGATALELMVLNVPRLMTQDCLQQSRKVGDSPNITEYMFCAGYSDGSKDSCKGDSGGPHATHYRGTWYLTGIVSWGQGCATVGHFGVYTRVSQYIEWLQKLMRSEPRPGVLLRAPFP
substance,measurement,value
recombinant soluble tissue factor (from UniProt P13726 33-251) (domain or fragment),Kd,5 nM and 2.7 nM
